Assay results as given in patent publication US20220396635A1 (UNIVERSIT T STUTTGART, published 2022).
Where two headings read alike, the source gives them in different places.

Key:
EGFR [1] = target: T1, EGFR (UniProt P00533 25-1210, limits assumed); assay: flow cytometry, serial dilution on LIM1215 cells (EGFR-expressing), PE anti-His detection
T1 construct: whole, on cells; the cell lines are human tumor lines
Method: (§1) Binding analysis of scDb and scDb-scFv was performed by flow cytometry using tumor cell lines with different EGFR-expression levels (Table 7). Adherent cells were washed with PBS and shortly trypsinized at 37° C. Trypsin was quenched with FCS-containing medium and removed by centrifugation (500×g, 5 min.). 1×10⁵ target cells/well (FaDu, Lim1215, T-47-D and SKBR-3) were incubated with a serial dilution of scDb or scDb-scFv for 1 h at 4° C. After removing excess of recombinant protein by washing with PBA (PBS, 2% FBS, and 0.02% sodium azide), bound protein was detected using PE-conjugated anti-hexahistidyl tag mAb (Miltenyi Biotec). Fluorescence was measured using MACSquant Analyzer 10 (Miltenyi Biotec) and data were analyzed using FlowJo (Tree Star). Relative median fluorescence intensities (MFI) were calculated as followed: relative MFI=((MFIₛₐₘₚₗₑ-(MFIdetection-MFIcells))/MFIcells).

EGFR [2] = target: T1, EGFR; assay: flow cytometry, serial dilution on SKBR-3 cells (EGFR-expressing), PE anti-His detection
Method: as §1

CD3 [3] = target: T2, CD3 (UniProt P07766 23-207); assay: flow cytometry, serial dilution on Jurkat cells (CD3-expressing), PE anti-His detection
T2 construct: whole, on cells; on cells it stands in the TCR/CD3 complex; also called CD3 on Jurkat cells

EGFR [4] = target: T1, EGFR; assay: flow cytometry, serial dilution on T-47-D cells (EGFR-expressing), PE anti-His detection
Method: as §1

EGFR [5] = target: T1, EGFR; assay: flow cytometry, serial dilution on FaDu cells (EGFR-expressing), PE anti-His detection
Method: as §1

EGFR [6] = target: T1, EGFR; assay: cell-based or functional assay
HER3 [7] = target: T3, HER3 (UniProt P21860 20-1342, limits assumed); assay: cell-based or functional assay
HER3 [8] = target: T3, HER3; assay: cell-based or functional assay; remark: listed apart in the source
HER3 [9] = target: T3, HER3; assay: flow cytometry, serial dilution on LIM1215 cells (HER3-expressing), PE anti-His detection
Method: (§2) Cell binding studies were performed by flow cytometry using cell lines with different expression levels of HER3 (Table 1). Adherent cells were washed with PBS and shortly trypsinized at 37° C. Trypsin was quenched with FCS-containing medium and removed by centrifugation (500×g, 5 min.). 1×10⁵ target cells (MCF-7, Jurkat, BT-474, FaDu, or LIM1215) were incubated with a serial dilution of recombinant proteins for 1 hour at 4° C. Bound protein was detected using a PE-conjugated anti-hexahistidyl tag mAb (Miltenyi Biotec). Incubation and washing steps were performed in PBS, 2% FBS, and 0.02% sodium azide. Fluorescence was measured by MACSQuant VYB (Miltenyi Biotec) and data were analyzed using FlowJo (Tree Star). Relative median fluorescence intensities (MFI) were calculated as followed: relative MFI=((MFIₛₐₘₚₗₑ−(MFIdetection−MFIcells))/MFIcells).

CD3 [10] = target: T2, CD3; assay: flow cytometry, serial dilution on Jurkat cells (CD3-expressing), PE anti-His detection; remark: listed apart in the source
Method: as §2

HER3 [11] = target: T3, HER3; assay: flow cytometry, serial dilution on FaDu cells (HER3-expressing), PE anti-His detection
Method: as §2

HER3 [12] = target: T3, HER3; assay: flow cytometry, serial dilution on MCF-7 cells (HER3-expressing), PE anti-His detection
Method: as §2

HER3 [13] = target: T3, HER3; assay: flow cytometry, serial dilution on BT-474 cells (HER3-expressing), PE anti-His detection
Method: as §2

HER3 [14] = target: T3, HER3; assay: flow cytometry on HER3-expressing cell lines, EC50 compared with scDb-scFv
Method: as §2

Binder	EC50 (EGFR [1])	EC50 (EGFR [2])	EC50 (CD3 [3])	EC50 (EGFR [4])	EC50 (EGFR [5])	EC50 of PBMC cytotoxicity on FaDu cells, E:T 10:1 (EGFR [6])	EC50 of PBMC cytotoxicity on LIM1215 cells, E:T 10:1 (EGFR [6])	EC50 of PBMC cytotoxicity on SKBR-3 cells, E:T 10:1 (EGFR [6])	EC50 of PBMC cytotoxicity on T-47-D cells, E:T 10:1 (EGFR [6])	EC50 of PBMC cytotoxicity on BT-474 cells, E:T 5:1 (HER3 [7])	EC50 of PBMC cytotoxicity on BT-474 cells, E:T 10:1 (HER3 [7])	EC50 of PBMC cytotoxicity on FaDu cells, E:T 5:1 (HER3 [7])	EC50 of PBMC cytotoxicity on FaDu cells, E:T 10:1 (HER3 [7])	EC50 of PBMC cytotoxicity on LIM1215 cells, E:T 5:1 (HER3 [7])	EC50 of PBMC cytotoxicity on LIM1215 cells, E:T 10:1 (HER3 [7])	EC50 of PBMC cytotoxicity on MCF-7 cells, E:T 5:1 (HER3 [7])	EC50 of PBMC cytotoxicity on MCF-7 cells, E:T 10:1 (HER3 [7])	EC50 of CD69 expression on CD4+ T-cells (CD4+CD69+), MCF-7 co-culture (HER3 [8])	EC50 of CD69 expression on CD8+ T-cells (CD8+CD69+), MCF-7 co-culture (HER3 [8])	EC50 of IFN-γ release, PBMCs co-cultured with MCF-7 cells (HER3 [8])	also measured
scDbhu225xhuU3-scFvhu225 (bispecific antibody, the end number was counted from the printed lines; The His tag is part of the entry; also called scDb-scFv; trivalent, bispecific bisAb targeting EGFR and CD3) EVQLVESGGGLVQPGGSLRLSCAASGFSLTNYGVHWVRQAPGKGLEWLGVIWSGGNTDYNTPFTSRFTISRDNSKNTLYLQMNSLRAEDTAVYYCARALTYYDYEFAYWGQGTTVTVSSGGGGSDIQMTQSPSSLSASVGDRVTITCRASQDIRNYLNWYQQKPGKAPKLLIYYTSRLHSGVPSRFSGSGSGTDFTFTISSLQPEDIATYYCQQGNTLPWTFGQGTKLEIKRGGGGSGGGGSGGGGSQVQLVQSGAEVKKPGSSVKVSCKASGGTFSGYTMNWVRQAPGQGLEWMGLINPYKGVSTYNGKFKDRVTITADKSTSTAYMELSSLRSEDTAVYYCARSGYYGDSDWYFDVWGQGTLVTVSSGGGGSDIQLTQSPSFLSASVGDRVTITCRASQSIGTNIHWYQQKPGKAPKLLIKYASESISGVPSRFSGSGSGTEFTLTISSLQPEDFATYYCQQNNNWPTTFGAGTKLEIKRAAAGGSGGGGSGGGTEVQLVESGGGLVQPGGSLRLSCAASGFSLTNYGVHWVRQAPGKGLEWLGVIWSGGNTDYNTPFTSRFTISRDNSKNTLYLQMNSLRAEDTAVYYCARALTYYDYEFAYWGQGTTVTVSSGGGGSGGGGSGGGGSDIQLTQSPSFLSASVGDRVTITCRASQSIGTNIHWYQQKPGKAPKLLIKYASESISGVPSRFSGSGSGTEFTLTISSLQPEDFATYYCQQNNNWPTTFGAGTKLEIKRSLHHHHHH	0.5 nM	0.3 nM	6.4 nM	0.09 nM	0.5 nM	0.009 nM	0.007 nM	0.002 nM	0.09 nM												
scDb3-43xhuU3-scFv3-43-His (bispecific antibody, Single chain, trivalent: two HER3 sites (3-43) and one CD3 site (huU3); The His tag is part of the entry; also called scDb-scFv; trivalent anti-HER3×anti-CD3 bsAb) QVQLQQSGPGLVKPSQTLSLTCAISGDSVSSNRAAWNWIRQSPSRGLEWLGRTYYRSKWYNDYAQSLKSRITINPDTPKNQFSLQLNSVTPEDTAVYYCARDGQLGLDALDIWGQGTMVTVSSGGGGSDIQMTQSPSSLSASVGDRVTITCRASQDIRNYLNWYQQKPGKAPKLLIYYTSRLHSGVPSRFSGSGSGTDFTFTISSLQPEDIATYYCQQGNTLPWTFGQGTKLEIKRGGGGSGGGGSGGGGSQVQLVQSGAEVKKPGSSVKVSCKASGGTFSGYTMNWVRQAPGQGLEWMGLINPYKGVSTYNGKFKDRVTITADKSTSTAYMELSSLRSEDTAVYYCARSGYYGDSDWYFDVWGQGTLVTVSSGGGGSQAGLTQPPAVSVAPGQTASITCGRDNIGSRSVHWYQQKPGQAPVLVVYDDSDRPAGIPERFSGSNYENTATLTISRVEAGDEADYYCQVWGITSDHVVFGGGTKLTVLAAAGGSGGGGSGGGTQVQLQQSGPGLVKPSQTLSLTCAISGDSVSSNRAAWNWIRQSPSRGLEWLGRTYYRSKWYNDYAQSLKSRITINPDTPKNQFSLQLNSVTPEDTAVYYCARDGQLGLDALDIWGQGTMVTVSSGGGGSGGGGSGGGGSQAGLTQPPAVSVAPGQTASITCGRDNIGSRSVHWYQQKPGQAPVLVVYDDSDRPAGIPERFSGSNYENTATLTISRVEAGDEADYYCQVWGITSDHVVFGGGTKLTVLGSLHHHHHH										0.002 nM	0.007 nM	0.2 nM	0.1 nM	0.003 nM	0.001 nM	0.003 nM	0.001 nM	0.003 nM	0.02 nM	0.567 nM	EC50 of IL-2 release, PBMCs co-cultured with MCF-7 cells (HER3 [8]): 0.403 nM; EC50 of proliferation of CD4+ T-cells, MCF-7 co-culture (HER3 [8]): 0.08 nM; EC50 of proliferation of CD8+ T-cells, MCF-7 co-culture (HER3 [8]): 0.09 nM; EC50 (HER3 [9]): 0.2 nM; EC50 (CD3 [10]): 4 nM; EC50 (HER3 [11]): 0.1 nM; EC50 (HER3 [12]): 0.03 nM; EC50 (HER3 [13]): 0.2 nM
scDbhu225xhuU3 (bispecific antibody, the end number was counted from the printed lines; The His tag is part of the entry; also called bispecific scDb targeting CD3 and EGFR) EVQLVESGGGLVQPGGSLRLSCAASGFSLTNYGVHWVRQAPGKGLEWLGVIWSGGNTDYNTPFTSRFTISRDNSKNTLYLQMNSLRAEDTAVYYCARALTYYDYEFAYWGQGTTVTVSSGGGGSDIQMTQSPSSLSASVGDRVTITCRASQDIRNYLNWYQQKPGKAPKLLIYYTSRLHSGVPSRFSGSGSGTDFTFTISSLQPEDIATYYCQQGNTLPWTFGQGTKLEIKRGGGGSGGGGSGGGGSQVQLVQSGAEVKKPGSSVKVSCKASGGTFSGYTMNWVRQAPGQGLEWMGLINPYKGVSTYNGKFKDRVTITADKSTSTAYMELSSLRSEDTAVYYCARSGYYGDSDWYFDVWGQGTLVTVSSGGGGSDIQLTQSPSFLSASVGDRVTITCRASQSIGTNIHWYQQKPGKAPKLLIKYASESISGVPSRFSGSGSGTEFTLTISSLQPEDFATYYCQQNNNWPTTFGAGTKLEIKRAAAGGSGGGGSGGGTGGGGSLHHHHHH	1.6 nM	2.3 nM	5.4 nM	1.1 nM	1.4 nM	> 10 nM	> 10 nM	> 10 nM	> 10 nM												
scDb3-43xhuU3-His (bispecific antibody, Single-chain diabody, bivalent: one HER3 site (3-43) and one CD3 site (huU3, humanized UCHT1); The His tag is part of the entry; also called anti-HER3×CD3 bispecific scDb) QVQLQQSGPGLVKPSQTLSLTCAISGDSVSSNRAAWNWIRQSPSRGLEWLGRTYYRSKWYNDYAQSLKSRITINPDTPKNQFSLQLNSVTPEDTAVYYCARDGQLGLDALDIWGQGTMVTVSSGGGGSDIQMTQSPSSLSASVGDRVTITCRASQDIRNYLNWYQQKPGKAPKLLIYYTSRLHSGVPSRFSGSGSGTDFTFTISSLQPEDIATYYCQQGNTLPWTFGQGTKLEIKRGGGGSGGGGSGGGGSQVQLVQSGAEVKKPGSSVKVSCKASGGTFSGYTMNWVRQAPGQGLEWMGLINPYKGVSTYNGKFKDRVTITADKSTSTAYMELSSLRSEDTAVYYCARSGYYGDSDWYFDVWGQGTLVTVSSGGGGSQAGLTQPPAVSVAPGQTASITCGRDNIGSRSVHWYQQKPGQAPVLVVYDDSDRPAGIPERFSGSNYENTATLTISRVEAGDEADYYCQVWGITSDHVVFGGGTKLTVLAAAHHHHHH										0.17 nM	0.2 nM	0.4 nM	0.3 nM	0.08 nM	0.03 nM	0.07 nM	0.014 nM	0.1 nM	0.16 nM	0.609 nM	EC50 of IL-2 release, PBMCs co-cultured with MCF-7 cells (HER3 [8]): 0.404 nM; EC50 of proliferation of CD4+ T-cells, MCF-7 co-culture (HER3 [8]): 0.5 nM; EC50 of proliferation of CD8+ T-cells, MCF-7 co-culture (HER3 [8]): 0.3 nM; EC50 (HER3 [9]): 11.7 nM; EC50 (CD3 [10]): 1.64 nM; fold weaker binding than scDb-scFv (HER3 [14]): ≤ 50 fold; EC50 (HER3 [12]): 4.7 nM; EC50 (HER3 [13]): 9.7 nM
